Measurements published in patent publication EP4722245A1, “ANTIBODY TARGETING ITGA2, ANTIBODY DRUG CONJUGATE THEREOF, AND USE” (Foreseen Technology (Beijing) Co., Ltd., priority 2023, dated 2024).
Substitutions are numbered along the chain they refer to.

T1: ITGA2 protein on the surface of human tumor cells (human, UniProt P17301 30-1181)
T1 construct: whole, on cells; Endogenously expressed; the cell line is named under assay or readout; also called Integrin alpha-2; ITGA2-positive HuCCT1 cells
T1 sequence (looked up): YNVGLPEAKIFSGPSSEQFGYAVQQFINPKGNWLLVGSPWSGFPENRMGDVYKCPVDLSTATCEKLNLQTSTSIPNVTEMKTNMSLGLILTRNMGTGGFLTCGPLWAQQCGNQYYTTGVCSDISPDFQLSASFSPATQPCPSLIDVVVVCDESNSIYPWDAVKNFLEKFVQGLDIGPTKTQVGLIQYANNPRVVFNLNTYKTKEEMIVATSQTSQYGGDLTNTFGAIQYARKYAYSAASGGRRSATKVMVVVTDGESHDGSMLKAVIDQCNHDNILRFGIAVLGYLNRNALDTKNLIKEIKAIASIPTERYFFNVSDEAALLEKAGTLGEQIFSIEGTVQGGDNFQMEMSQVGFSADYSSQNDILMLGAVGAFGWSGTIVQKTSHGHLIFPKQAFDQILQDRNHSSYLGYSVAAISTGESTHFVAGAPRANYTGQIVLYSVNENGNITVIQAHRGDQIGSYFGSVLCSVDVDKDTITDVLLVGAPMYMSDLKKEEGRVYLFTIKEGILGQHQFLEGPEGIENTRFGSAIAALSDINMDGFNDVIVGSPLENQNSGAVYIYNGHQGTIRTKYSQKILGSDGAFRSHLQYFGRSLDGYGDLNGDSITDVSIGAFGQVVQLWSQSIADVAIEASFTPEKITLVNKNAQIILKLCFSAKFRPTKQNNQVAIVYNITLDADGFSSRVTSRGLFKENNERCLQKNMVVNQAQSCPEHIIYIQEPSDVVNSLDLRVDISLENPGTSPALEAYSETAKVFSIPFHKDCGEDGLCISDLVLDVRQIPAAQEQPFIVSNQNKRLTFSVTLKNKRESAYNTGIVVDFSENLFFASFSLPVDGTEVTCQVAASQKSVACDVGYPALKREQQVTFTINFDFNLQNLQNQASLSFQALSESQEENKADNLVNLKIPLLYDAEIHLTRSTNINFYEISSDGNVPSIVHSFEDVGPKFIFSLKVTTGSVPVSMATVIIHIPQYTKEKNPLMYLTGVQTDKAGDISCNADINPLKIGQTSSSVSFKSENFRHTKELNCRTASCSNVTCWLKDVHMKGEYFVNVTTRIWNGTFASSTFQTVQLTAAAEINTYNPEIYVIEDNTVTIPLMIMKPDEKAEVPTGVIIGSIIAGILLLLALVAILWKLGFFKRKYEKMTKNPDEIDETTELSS

T2: ITGA2-His (UniProt P17301 30-1132, limits assumed)
T2 construct: Coated on the ELISA plate at 2 ug/mL; whole entry P17301 is named; also called ITGA2 protein; not shown: His tag
T2 sequence (looked up): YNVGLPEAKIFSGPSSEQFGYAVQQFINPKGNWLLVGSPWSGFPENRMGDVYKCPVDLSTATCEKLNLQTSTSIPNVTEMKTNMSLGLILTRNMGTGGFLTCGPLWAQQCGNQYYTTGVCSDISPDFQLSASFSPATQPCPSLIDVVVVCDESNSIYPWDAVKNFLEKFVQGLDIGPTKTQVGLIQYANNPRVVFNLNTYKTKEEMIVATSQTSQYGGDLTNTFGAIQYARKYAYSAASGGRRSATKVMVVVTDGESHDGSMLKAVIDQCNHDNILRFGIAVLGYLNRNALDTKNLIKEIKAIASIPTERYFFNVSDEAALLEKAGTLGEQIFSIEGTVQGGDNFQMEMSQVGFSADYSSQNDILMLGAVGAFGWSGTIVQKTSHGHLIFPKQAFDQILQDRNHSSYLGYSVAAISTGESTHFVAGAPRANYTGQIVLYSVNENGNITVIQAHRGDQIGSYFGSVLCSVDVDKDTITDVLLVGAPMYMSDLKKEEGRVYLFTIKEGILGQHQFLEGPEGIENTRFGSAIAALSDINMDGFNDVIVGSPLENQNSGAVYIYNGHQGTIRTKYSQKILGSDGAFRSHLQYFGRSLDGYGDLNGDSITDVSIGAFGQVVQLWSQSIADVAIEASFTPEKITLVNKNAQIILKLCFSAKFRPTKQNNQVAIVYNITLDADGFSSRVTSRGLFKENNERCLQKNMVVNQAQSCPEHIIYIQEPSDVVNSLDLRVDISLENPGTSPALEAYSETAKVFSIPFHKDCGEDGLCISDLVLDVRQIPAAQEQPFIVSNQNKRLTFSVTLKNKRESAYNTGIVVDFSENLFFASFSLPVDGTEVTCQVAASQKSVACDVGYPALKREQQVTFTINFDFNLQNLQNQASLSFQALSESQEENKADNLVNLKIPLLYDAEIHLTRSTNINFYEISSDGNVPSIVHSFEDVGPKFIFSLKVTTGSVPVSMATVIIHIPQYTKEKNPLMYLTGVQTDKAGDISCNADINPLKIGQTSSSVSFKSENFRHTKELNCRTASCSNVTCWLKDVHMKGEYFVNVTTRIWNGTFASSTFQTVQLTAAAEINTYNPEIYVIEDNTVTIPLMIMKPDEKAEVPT

B1: Chimeric mouse antibody FS002-A103 (antibody, human IgG1, kappa, V domains shown)
VH: QVQLQQSGAELVRPGASVTLSCKASGYTFTDYEMHWVKQTPVHGLEWIGVIDPETGGTTYNQKFNDKATLTADKSSSTAYMDLRSLTSEDSAVYYCSRSGYYVSSYESYAMDYWGQGTSVTVSS
VL: DIVMTQSPKSMSMSVGERVTLSCKASENVGTYVSWYQQKPEQSPKLLIYGASTRESGVPDRFTGSGSGTDFTLTISSVQAEDLAVYYCQNDYSYPFTFGSGTKLEIKR
notes: Chimeric; expressed in ExpiCHO-S
B2: Chimeric mouse antibody FS002-A208 (antibody, human IgG1, kappa, V domains shown)
VH: B1 VH with M34I, V50A, T59N, S105N
VL: DIVMTQSQKFMSTSVGDRVSVTCKASQNVGTNVAWYQQKPGQSPKTLIYSASYRFSGVPDRFTGSGSGTDFTLTINNVQSEDLADYFCQQYNIYPLSFGAGTKLELKR
notes: Chimeric
B3: Chimeric mouse antibody FS002-A153 (antibody, human IgG1, kappa, V domains shown)
VH: B1 VH with V50T
VL: DIVMTQSPSSLTVTAGEKVTMSCKSSQSLLNSGNQKNYLTWYQQKPGQPPKLLIYGASTRESGVPDRFTGSGSGTDFTLTISSVQAEDLAVYYCQNDYSYPFTFGSGTKLEIKR
notes: Chimeric
B4: Chimeric mouse antibody FS002-A226 (antibody, human IgG1, kappa, V domains shown)
VH: B1 VH with V2L, M34I, V50A, T59N, S105N
VL: DIKITQSPSSMYASLGERVTITCKASQDIKSYLSWYQQKPGSSPRLLIYDTSNLASGVPVRFSGRGSGTSYSLTISRMEAEDAATYYCQQWSSYPFTFGSGTKLEIKR
notes: Chimeric
B5: Humanized antibody FS002-A153-H5L2 (antibody, human IgG1, kappa, V domains shown)
VH: QVQLVQSGAEVKKPGASVKVSCKASGYTFTDYEMHWVRQAPGQGLEWMGTIDPETGGTTYAQKFQGRVTMTADTSISTAYMELSRLRSDDTAVYYCARSGYYVSSYESYAMDYWGQGTTVTVSS
VL: B3 VL with S9D, T12A, T14S, A15L, K18R, S22N, T69S, V84L, L89V, S106G
notes: Humanized IgG1 kappa
B6: Humanized antibody FS002-A103-H4L3 (antibody, human IgG1, kappa, V domains shown)
VH: B5 VH with T50V, A61N, M70L, A97S
VL: EIVMTQSPPTMSMSPGERVTLSCKASENVGTYVSWYQQKPGQAPRLLIYGASTRESGVPARFSGSGSGTDFTLTISSLQPEDFAVYYCQNDYSYPFTFGGGTKLEIKR
notes: Humanized IgG1 kappa
B7: Humanized antibody FS002-A153-H5L5 (antibody, human IgG1, kappa, V domains shown)
VH: B5 VH
VL: EIVMTQSPPTLSLSPGERVTMSCRSSQSLLNSGNQKNYLTWYQQKPGQAPRLLIYGASTRESGVPARFSGSGSGTDFTLTISSLQPEDFAVYYCQNDYSYPFTFGGGTKLEIKR
notes: Humanized IgG1 kappa
B8: Humanized antibody FS002-A226-H4L3 (antibody, human IgG1, kappa, V domains shown)
VH: B5 VH with M34I, M48I, T50A, T59N, A61N, M70L, A97S, S105N
VL: DIQITQSPSSMSASVGDRVTITCKASQDIKSYLSWYQQKPGKAPKLLIYDTSNLASGVPSRFSGSGSGTDYTLTISSLQPEDFATYYCQQWSSYPFTFGGGTKLEIKR
notes: Humanized IgG1 kappa
B9: Humanized antibody FS002-A208-H4L4 (antibody, human IgG1, kappa, V domains shown)
VH: B5 VH with M34I, M48I, T50A, T59N, A61N, M70L, A97S, S105N
VL: DIQMTQSPSSLSASVGDRVTITCRASQNVGTNVAWYQQKPEKAPKSLIYSASYRFSGVPSRFSGSGSGTDFTLTISSLQPEDFATYYCQQYNIYPLSFGGGTKLELKR
notes: Humanized IgG1 kappa
B10: Humanized antibody FS002-A226-H5L3 (antibody, human IgG1, kappa, V domains shown)
VH: B5 VH with M34I, T50A, T59N, A97S, S105N
VL: B8 VL
notes: Humanized IgG1 kappa
B11: Humanized antibody FS002-A153-H5L4 (antibody, human IgG1, kappa, V domains shown)
VH: B5 VH
VL: B7 VL with E1D, L13V, R24K, A66D
notes: Humanized IgG1 kappa
B12: Humanized antibody FS002-A208-H5L4 (antibody, human IgG1, kappa, V domains shown)
VH: B5 VH with M34I, T50A, T59N, A97S, S105N
VL: B9 VL
notes: Humanized IgG1 kappa
B13: Humanized antibody FS002-A153-H4L2 (antibody, human IgG1, kappa, V domains shown)
VH: B5 VH with M70L, A97S
VL: B3 VL with S9D, T12A, T14S, A15L, K18R, S22N, T69S, V84L, L89V, S106G
notes: Humanized IgG1 kappa
B14: Humanized antibody FS002-A208-H3L4 (antibody, human IgG1, kappa, V domains shown)
VH: QVQLVQSGAEVKKPGASVKVSCKASGYTFTDYEIHWVRQAPGQGLEWIGAIDPETGGTNYNQKFNDRVTLTADKSISTAYMELSRLRSDDTAVYYCSRSGYYVSNYESYAMDYWGQGTTVTVSS
VL: B9 VL
notes: Humanized IgG1 kappa
B15: Humanized antibody FS002-A226-H5L4 (antibody, human IgG1, kappa, V domains shown)
VH: B5 VH with M34I, T50A, T59N, A97S, S105N
VL: B8 VL with I4L, M11L, K24R, Y71F
notes: Humanized IgG1 kappa
B16: Humanized antibody FS002-A103-H4L2 (antibody, human IgG1, kappa, V domains shown)
VH: B5 VH with T50V, A61N, M70L, A97S
VL: B6 VL with P9K, A60D
notes: Humanized IgG1 kappa
B17: Humanized antibody FS002-A153-H3L3 (antibody, human IgG1, kappa, V domains shown)
VH: B5 VH with V20L, M48I, A61N, M70L, A97S
VL: DIVMTQSPDSLAVSLGERATINCKSSQSLLNSGNQKNYLTWYQQKPGQPPKLLIYGASTRESGVPDRFSGSGSGTDFTLTISSLQAEDVAVYYCQNDYSYPFTFGGGTKLEIKR
notes: Humanized IgG1 kappa
B18: Humanized antibody FS002-A226-H3L4 (antibody, human IgG1, kappa, V domains shown)
VH: B14 VH with V2L, K74T
VL: B8 VL with I4L, M11L, K24R, Y71F
notes: Humanized IgG1 kappa
B19: Humanized antibody FS002-A153-H5L1 (antibody, human IgG1, kappa, V domains shown)
VH: B5 VH
VL: B17 VL with A19V, I21M, N22S, S69T
notes: Humanized IgG1 kappa
B20: Vatelizumab (antibody, V domains shown)
VH: QVQLQESGPGLVKPSETLSLTCTVSGFSLTNYGIHWIRQPPGKGLEWLGVIWARGFTNYNSALMSRLTISKDNSKNQVSLKLSSVTAADTAVYYCARANDGVYYAMDYWGQGTLVTVSS
VL: DFVMTQSPAFLSVTPGEKVTITCSAQSSVNYIHWYQQKPDQAPKKLIYDTSKLASGVPSRFSGSGSGTDYTFTISSLEAEDAATYYCQQWTTNPLTFGQGTKVEIK

target: T1, ITGA2 protein on the surface of human …; assay: flow cytometry on HuCCT1 cells

Row | EC50 | Binder
1 | 0.633 nM | B1
2 | 0.76 nM | B2
3 | 0.333 nM | B3
4 | 0.58 nM | B4
5 | 0.22 nM | B5
6 | 0.08 nM | B6
7 | 0.48 nM | B7
8 | 0.533 nM | B8
9 | 0.6 nM | B9
10 | 0.58 nM | B10
11 | 0.487 nM | B11
12 | 0.627 nM | B12
13 | 0.313 nM | B13
14 | 0.587 nM | B14
15 | 0.647 nM | B15
16 | 0.127 nM | B16
17 | 0.42 nM | B17
18 | 0.28 nM | B18
19 | 0.58 nM | B19
20 | 0.78 nM | B20

target: T2, ITGA2-His; assay: ELISA, plate coated with 2 ug/mL ITGA2-His, anti-human IgG-Fc-HRP detection

Row | EC50 | Binder
21 | 0.017 nM | B1
22 | 0.02 nM | B2
23 | 0.008 nM | B3
24 | 0.018 nM | B4
25 | 0.009 nM | B5
26 | 0.006 nM | B6
27 | 0.022 nM | B7
28 | 0.024 nM | B8
29 | 0.017 nM | B9
30 | 0.023 nM | B10
31 | 0.024 nM | B11
32 | 0.018 nM | B12
33 | 0.011 nM | B13
34 | 0.022 nM | B14
35 | 0.022 nM | B15
36 | 0.006 nM | B16
37 | 0.014 nM | B17
38 | 0.023 nM | B18
39 | 0.027 nM | B19
40 | 0.008 nM | B20
